Experimental data: article PMC5435312, “DNA recognition by an RNA-guided bacterial Argonaute”

Biological target: T1, MpAgo D516A (Marinitoga piezophila, UniProt H2J4R4 1-639, D516A)
T1 sequence: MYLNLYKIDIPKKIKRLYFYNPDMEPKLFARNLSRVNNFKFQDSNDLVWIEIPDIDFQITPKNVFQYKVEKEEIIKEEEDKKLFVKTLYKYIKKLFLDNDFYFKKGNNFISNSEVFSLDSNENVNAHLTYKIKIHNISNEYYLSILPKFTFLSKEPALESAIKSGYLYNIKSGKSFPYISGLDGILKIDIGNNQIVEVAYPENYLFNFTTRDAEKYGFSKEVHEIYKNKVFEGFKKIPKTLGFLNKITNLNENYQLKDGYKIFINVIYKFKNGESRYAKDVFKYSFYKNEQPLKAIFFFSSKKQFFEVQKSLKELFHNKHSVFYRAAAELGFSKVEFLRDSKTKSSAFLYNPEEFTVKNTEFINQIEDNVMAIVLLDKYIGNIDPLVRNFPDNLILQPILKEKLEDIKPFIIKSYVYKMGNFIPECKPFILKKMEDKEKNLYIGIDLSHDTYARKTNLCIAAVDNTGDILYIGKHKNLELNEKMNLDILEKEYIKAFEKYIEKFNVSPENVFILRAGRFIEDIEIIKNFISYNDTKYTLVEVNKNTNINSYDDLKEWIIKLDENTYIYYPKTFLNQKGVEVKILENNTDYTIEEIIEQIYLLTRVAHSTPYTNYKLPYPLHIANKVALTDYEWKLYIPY
Experiment: X-ray crystallography (3.2 A); 0.1 M MES pH 7.0, 275 mM KI, 27% PEG 4000; guide RNA 1.2x, target equimolar to guide; Crystallization: 0.1 M MES pH 7.0, 275 mM KI, 27% (w/v) PEG 4000, 18 C; protein about 3.5 mg/ml in complex; mismatch guides assayed by cleavage only (no binding read-out)
Conditions: protein: recombinant; tags: His10-Asn10-MBP tag removed by PreScission protease; 21 nt guide and 21 nt target, fully complementary; in the complex guide nt 1 and target C21 are unpaired, 20 bp modeled

B1: 21 nt RNA guide / 21 nt DNA target (DNA:RNA)
RNA: GGUACAACCUACUACCUCAUU
DNA: AATGAGGTAGTAGGTTGTACC
modifications: 5'-OH RNA guide; 5'-phosphate DNA target
B1: binds.
